Target: NKG2D receptor on primary human NK cells (human (endogenous in primary NK cells)) (UniProt P26718)
UniProt P26718, sequence (P26718 whole entry): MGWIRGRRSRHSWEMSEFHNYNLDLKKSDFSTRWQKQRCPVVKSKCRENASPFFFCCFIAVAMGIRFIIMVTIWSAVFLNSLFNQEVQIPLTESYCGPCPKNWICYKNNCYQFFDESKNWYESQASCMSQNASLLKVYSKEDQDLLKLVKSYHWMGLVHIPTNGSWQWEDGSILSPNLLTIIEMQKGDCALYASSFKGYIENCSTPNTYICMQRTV

NK cell cytolytic activity (7-AAD uptake of CD56- target cells), fresh NK cells with target cells 4 h at 10 to 1 effector to target ratio; parental C1R control approximately 15%: 40%
Substance: Full-length human MICA*002 on C1R-MICA*002 cells (from UniProt Q29983 24-383) (ligand)

From PMC6685158
